From doi:10.1101/2020.05.05.078790

Target: HLA-E*0103 heavy chain-β2M complex (human)
Test: ELISA

Substance | percent of the VL9 signal after background subtraction [%]
BZLF1 (…) (peptide) | 41
RL9HIV (…) (peptide) | 43
RL9SIV (…) (peptide) | 22
